Results as given in publication PMC2661844, “HD-PTP Is a Catalytically Inactive Tyrosine Phosphatase Due to a Conserved Divergence in Its Phosphatase Domain” (PLoS ONE, 2009).

Key:
[1] = substrate: Cc1cc(=O)oc2c(F)c(OP(=O)(O)O)c(F)cc12; assay: fluorogenic DiFMUP hydrolysis, Michaelis-Menten fit; assay type: biochemical, Homo sapiens; details: 50 mM Hepes, 3 mM DTT, 0.1 mg/ml BSA, pH 6.5, 37 °C, DiFMUP 0-300 µM, wild type inactive
From the text: fluorogenic DiFMUP hydrolysis, Michaelis-Menten fit on Flag-HD-PTP catalytic domain (CD)

[2] = substrate: Cc1cc(=O)oc2c(F)c(OP(=O)(O)O)c(F)cc12; assay: as above; assay type: biochemical, Homo sapiens; details: 50 mM Hepes, 3 mM DTT, 0.1 mg/ml BSA, pH 6.5, 37 °C, DiFMUP 0-300 µM, wild type inactive; remark: listed apart in the source
From the text: fluorogenic DiFMUP hydrolysis, Michaelis-Menten fit on Flag-HD-PTP full-length (HD)

B1: Flag-HD-PTP catalytic domain (CD) (Homo sapiens; S1394A) (protein)
chain: ERLRQLQQELEAFRGQLGDVGALDTVWRELQDAQEHDARGRSIAIARCYSLKNRHQDVMPYDSNRVVLRSGKDDYINASCVEGLSPYCPPLVATQAPLPGTAADFWLMVHEQKVSVIVMLVSEAEMEKQKVARYFPTERGQPMVHGALSLALSSVRSTETHVERVLSLQFRDQSLKRSLVHLHFPTWPELGLPDSPSNLLRFIQEVHAHYLHQRPLHTPIIVHCSAGVGRTGAFALLYAAVQEVEAGNGIPELPQLVRRMRQQRKHMLQEKLHLRFCYEAVVRHVEQVLQRH
notes: PTP catalytic domain, residues 1169-1460, 2xFlag tag kept, expressed in HEK 293T, anti-Flag purified
- Km [1]: 18 µM
- kcat [1]: 0.1 s⁻¹

B2: Flag-HD-PTP full-length (HD) (Homo sapiens; S1394A) (protein)
chain: MEAVPRMPMIWLDLKEAGDFHFQPAVKKFVLKNYGENPEAYNEELKKLELLRQNAVRVPRDFEGCSVLRKYLGQLHYLQSRVPMGSGQEAAVPVTWTEIFSGKSVAHEDIKYEQACILYNLGALHSMLGAMDKRVSEEGMKVSCTHFQCAAGAFAYLREHFPQAYSVDMSRQILTLNVNLMLGQAQECLLEKSMLDNRKSFLVARISAQVVDYYKEACRALENPDTASLLGRIQKDWKKLVQMKIYYFAAVAHLHMGKQAEEQQKFGERVAYFQSALDKLNEAIKLAKGQPDTVQDALRFTMDVIGGKYNSAKKDNDFIYHEAVPALDTLQPVKGAPLVKPLPVNPTDPAVTGPDIFAKLVPMAAHEASSLYSEEKAKLLREMMAKIEDKNEVLDQFMDSMQLDPETVDNLDAYSHIPPQLMEKCAALSVRPDTVRNLVQSMQVLSGVFTDVEASLKDIRDLLEEDELLEQKFQEAVGQAGAISITSKAELAEVRREWAKYMEVHEKASFTNSELHRAMNLHVGNLRLLSGPLDQVRAALPTPALSPEDKAVLQNLKRILAKVQEMRDQRVSLEQQLRELIQKDDITASLVTTDHSEMKKLFEEQLKKYDQLKVYLEQNLAAQDRVLCALTEANVQYAAVRRVLSDLDQKWNSTLQTLVASYEAYEDLMKKSQEGRDFYADLESKVAALLERTQSTCQAREAARQQLLDRELKKKPPPRPTAPKPLLPRREESEAVEAGDPPEELRSLPPDMVAGPRLPDTFLGSATPLHFPPSPFPSSTGPGPHYLSGPLPPGTYSGPTQLIQPRAPGPHAMPVAPGPALYPAPAYTPELGLVPRSSPQHGVVSSPYVGVGPAPPVAGLPSAPPPQFSGPELAMAVRPATTTVDSIQAPIPSHTAPRPNPTPAPPPPCFPVPPPQPLPTPYTYPAGAKQPIPAQHHFSSGIPAGFPAPRIGPQPQPHPQPHPSQAFGPQPPQQPLPLQHPHLFPPQAPGLLPPQSPYPYAPQPGVLGQPPPPLHTQLYPGPAQDPLPAHSGALPFPSPGPPQPPHPPLAYGPAPSTRPMGPQAAPLTIRGPSSAGQSTPSPHLVPSPAPSPGPGPVPPRPPAAEPPPCLRRGAAAADLLSSSPESQHGGTQSPGGGQPLLQPTKVDAAEGRRPQALRLIERDPYEHPERLRQLQQELEAFRGQLGDVGALDTVWRELQDAQEHDARGRSIAIARCYSLKNRHQDVMPYDSNRVVLRSGKDDYINASCVEGLSPYCPPLVATQAPLPGTAADFWLMVHEQKVSVIVMLVSEAEMEKQKVARYFPTERGQPMVHGALSLALSSVRSTETHVERVLSLQFRDQSLKRSLVHLHFPTWPELGLPDSPSNLLRFIQEVHAHYLHQRPLHTPIIVHCSAGVGRTGAFALLYAAVQEVEAGNGIPELPQLVRRMRQQRKHMLQEKLHLRFCYEAVVRHVEQVLQRHGVPPPCKPLASASISQKNHLPQDSQDLVLGGDVPISSIQATIAKLSIRPPGGLESPVASLPGPAEPPGLPPASLPESTPIPSSSPPPLSSPLPEAPQPKEEPPVPEAPSSGPPSSSLELLASLTPEAFSLDSSLRGKQRMSKHNFLQAHNGQGLRATRPSDDPLSLLDPLWTLNKT
notes: full length, residues 1-1636, 2xFlag tag kept, expressed in HEK 293T, anti-Flag purified
- Km [2]: 28 µM
- kcat [2]: 0.2 s⁻¹
- kcat/Km [2]: 6000 M⁻¹ s⁻¹
